As usually defined, the koff is the first-order rate constant of dissociation.

Substitutions are numbered along the chain they refer to.

Data on 11 molecules can be found in patent publication US20260209362A1 (VIB VZW, published 2026).

For experiment [1], the target named is T1, biotinylated recombinant human IL-12Rβ2 (human, UniProt Q99665 24-622, random biotinylated).
T1 construct: Recombinant protein produced in-house; also called hIL-12RB2; human IL-12RB2
T1 sequence: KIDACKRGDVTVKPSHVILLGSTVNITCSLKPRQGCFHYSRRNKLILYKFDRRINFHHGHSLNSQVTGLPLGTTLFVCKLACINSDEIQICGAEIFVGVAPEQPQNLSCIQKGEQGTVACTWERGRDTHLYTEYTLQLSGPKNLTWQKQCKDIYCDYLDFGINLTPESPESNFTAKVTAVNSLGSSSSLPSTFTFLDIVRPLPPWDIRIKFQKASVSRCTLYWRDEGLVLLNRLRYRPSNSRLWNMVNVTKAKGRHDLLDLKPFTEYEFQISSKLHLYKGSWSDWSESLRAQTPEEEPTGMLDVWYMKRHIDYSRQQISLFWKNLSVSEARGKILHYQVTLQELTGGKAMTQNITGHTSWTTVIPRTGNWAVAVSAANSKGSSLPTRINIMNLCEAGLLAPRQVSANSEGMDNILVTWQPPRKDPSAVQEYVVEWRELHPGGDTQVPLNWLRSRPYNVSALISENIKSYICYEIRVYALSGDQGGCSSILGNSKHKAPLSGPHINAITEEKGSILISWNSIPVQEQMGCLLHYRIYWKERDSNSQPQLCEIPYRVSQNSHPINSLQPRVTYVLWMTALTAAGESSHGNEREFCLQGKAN
Put plainly: BLI, P.E., off-rate ranking. On the technique in general: In BLI a coated tip is dipped into the sample, and binding shifts an interference pattern.

Experiment [2] has as its target T1, biotinylated recombinant human IL-12Rβ2. Put plainly: ELISA, P.E., biotinylated antigen. For orientation: ELISA stands for enzyme-linked immunosorbent assay.
Experiment [3] concerns the target T2, biotinylated recombinant mouse IL-12Rβ2 (mouse, UniProt P97378 24-637, random biotinylated).
T2 construct: Recombinant protein produced in-house; also called mIL-12RB2; mouse IL-12RB2
T2 sequence: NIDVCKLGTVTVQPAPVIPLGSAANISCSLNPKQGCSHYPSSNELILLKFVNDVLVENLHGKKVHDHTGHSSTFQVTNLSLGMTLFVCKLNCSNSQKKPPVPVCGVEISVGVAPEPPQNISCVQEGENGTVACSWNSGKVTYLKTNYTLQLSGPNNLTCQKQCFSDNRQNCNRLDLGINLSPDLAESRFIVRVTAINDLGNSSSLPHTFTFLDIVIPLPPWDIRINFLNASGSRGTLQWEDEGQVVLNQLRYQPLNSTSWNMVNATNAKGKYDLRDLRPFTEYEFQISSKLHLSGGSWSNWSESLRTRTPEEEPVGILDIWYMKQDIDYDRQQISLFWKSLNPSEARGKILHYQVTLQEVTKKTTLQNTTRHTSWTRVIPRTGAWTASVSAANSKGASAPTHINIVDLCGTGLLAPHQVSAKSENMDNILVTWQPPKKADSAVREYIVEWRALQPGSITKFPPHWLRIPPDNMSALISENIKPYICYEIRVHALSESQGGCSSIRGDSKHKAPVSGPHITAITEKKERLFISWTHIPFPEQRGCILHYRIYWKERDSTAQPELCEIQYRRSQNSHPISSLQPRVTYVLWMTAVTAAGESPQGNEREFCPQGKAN
Put plainly: ELISA, P.E., biotinylated antigen.

B1: anti-IL-12Rβ2 VHH clone 3CRHS99 (clone ID 20427) (VHH, not shown: small tags and cut ends)
VHH: QVQLQESGGGLVQPGGSLRLSCKASGFTFSTYAMSWVRQAPGKGLEWVSAINSGGLSTDYADSVEGRFTISRDDAKNMLFLQMNSLKAEDTARYYCAKYEDCSDYMCHRDRAGYWGQGTQVTVSS
notes: periplasmic extract
As to B1, in experiment [1], the Response was 0.259 and the koff was found to be 0.00405 s⁻¹. The “ELISA hIL-12RB2/control” value in experiment [2] is 3.13. The “ELISA mIL-12RB2/control” value in experiment [3] was found to be 0.908.

B2: anti-IL-12Rβ2 VHH clone 3CRHS106 (clone ID 20429) (VHH, not shown: small tags and cut ends)
VHH: B1 VHH with I51V, A88P
notes: periplasmic extract
Take B2: in experiment [1], the Response was found to be 0.297 and the koff came out at 0.00355 s⁻¹. The “ELISA hIL-12RB2/control” value in experiment [2] is 10.2. For the same molecule, the “ELISA mIL-12RB2/control” value in experiment [3] was found to be 1.03.

B3: anti-IL-12Rβ2 VHH clone 3CRH59 (clone ID 20385) (VHH, not shown: small tags and cut ends)
VHH: QVQLQESGGGLVQPGGSLRLSCTASGFAFSSYWMYWVRQTPGKGFEWVSVVNPGGEITYYGDSMEDRFTISRDNAKNTLYLQMNSLKPEDTGLYYCARDRTTIDYTRTYYRGGQGTQVTVSS
notes: periplasmic extract
In the case of B3, in experiment [1], the Response is 0.487 and the koff was 0.00453 s⁻¹. Besides, the “ELISA hIL-12RB2/control” value in experiment [2] amounted to 15.9. The “ELISA mIL-12RB2/control” value in experiment [3] was determined as 1.89.

B4: anti-IL-12Rβ2 VHH clone 3CRHS142 (clone ID 20434) (VHH, not shown: small tags and cut ends)
VHH: QVQLQESGGGLVQAGGSLRLSCVSSQTLVGIEAMGWYRQAPGKQRELVALITLNGGTFYADSVKGRFTISRDVAEHMLYLEMNSLNPEDTAVYFCVAGVESDNEEPTYWGQGTQVTVSS
notes: periplasmic extract
Turning to B4, in experiment [1], the Response stood at 0.205 and the koff amounted to 0.00275 s⁻¹. In experiment [2], the “ELISA hIL-12RB2/control” value came to 23.7. For the same molecule, the “ELISA mIL-12RB2/control” value in experiment [3] stood at 0.999.

B5: anti-IL-12Rβ2 VHH clone 3CRHS67 (clone ID 20424) (VHH, not shown: small tags and cut ends)
VHH: B4 VHH with R19T
notes: periplasmic extract
For the molecule B5, in experiment [1], the Response is 0.416 and the koff came out at 0.00443 s⁻¹. For the same molecule, the “ELISA hIL-12RB2/control” value in experiment [2] was determined as 18.3. Moreover, in experiment [3], the “ELISA mIL-12RB2/control” value was found to be 1.19.

B6: anti-IL-12Rβ2 VHH clone 3CRHS166 (clone ID 20439) (VHH, not shown: small tags and cut ends)
VHH: B4 VHH with A14S
notes: periplasmic extract
As to B6, in experiment [1], the Response turned out to be 0.149 and the koff came to 0.00247 s⁻¹. Moreover, the “ELISA hIL-12RB2/control” value in experiment [2] is 23.2. Also, the “ELISA mIL-12RB2/control” value in experiment [3] came to 1.06.

B7: anti-IL-12Rβ2 VHH clone 2CRHS4 (clone ID 20411) (VHH, not shown: small tags and cut ends)
VHH: B4 VHH with A14P, E75G
notes: periplasmic extract
In the case of B7, in experiment [1], the Response turned out to be 0.279 and the koff is 0.00311 s⁻¹. Also, the “ELISA hIL-12RB2/control” value in experiment [2] stood at 12.5. Also, the “ELISA mIL-12RB2/control” value in experiment [3] amounted to 1.07.

B8: anti-IL-12Rβ2 VHH clone 3CRHS156 (clone ID 20437) (VHH, not shown: small tags and cut ends)
VHH: B4 VHH with A14S, T68A
notes: periplasmic extract
For the molecule B8, in experiment [1], the Response was determined as 0.282 and the off-rate constant (koff) was 0.00297 s⁻¹. In experiment [2], the “ELISA hIL-12RB2/control” value was determined as 24.5. In experiment [3], the “ELISA mIL-12RB2/control” value stood at 1.03.

B9: anti-IL-12Rβ2 VHH clone 2CRH41 (clone ID 20365) (VHH, not shown: small tags and cut ends)
VHH: QVQLQESGGGLVQPGGSLRLSCTASGFAFSSYWMYWVRQSPEKGFEWVSVVDTDGGITYYADSVKGRFTISRDNAKNTLYLQMNSLKPQDTALYYCARDRTTLEYTRTYYRTGQGTQVTVSS
notes: periplasmic extract
Consider B9, for which, in experiment [1], the Response was 0.493 and the koff worked out at 0.00496 s⁻¹. In experiment [2], the “ELISA hIL-12RB2/control” value was found to be 3.8. In addition, in experiment [3], the “ELISA mIL-12RB2/control” value is 1.64.

B10: anti-IL-12Rβ2 VHH clone 3CRHS163 (clone ID 20438) (VHH, not shown: small tags and cut ends)
VHH: B9 VHH with S31T, V37I, D52N, D54G, G56D, Q89E, L103M, E104S, T112G
notes: periplasmic extract
On to B10, for which, in experiment [1], the Response stood at 0.339 and the koff came out at 0.00302 s⁻¹. The “ELISA hIL-12RB2/control” value in experiment [2] stood at 3.58. Moreover, the “ELISA mIL-12RB2/control” value in experiment [3] is 0.927.

B11: anti-IL-12Rβ2 VHH clone 3CRH25 (clone ID 20378) (VHH, not shown: small tags and cut ends)
VHH: QVQLQESGGGLVQAGDSLRLSCTASGHTFSRYTTIGWFRQAPGKDREFVAAIRWSGDITDYADAVKGRFTISRDNVKNTVYLQMNSLNPEDTAVYYCARGYSEYGVLSRNRGLYAYWGQGTQVTVSS
notes: periplasmic extract
B11: in experiment [1], the Response is 0.523 and the koff came out at 0.00205 s⁻¹. In addition, the “ELISA hIL-12RB2/control” value in experiment [2] came to 5.16. The “ELISA mIL-12RB2/control” value in experiment [3] worked out at 1.04.
